Measurements reported in patent US20140249083A1 (THERATECHNOLOGIES, published 2014).
*1 amine or outer side, *2 acyl side, *3 side chain or, on linkers, in order; H or OH if unused. Primed or numbered codes have the meaning given here. [ ]: non-standard residue; d: D form. The star is where a group is joined. βAsp = O=C(O)[C@H](CC(=O)[*:2])N[*:1]; Met(O) = CS(=O)CC[C@H](N)C(=O)O; Hexenoyl(3E) = CC/C=C/CC(=O)*; Asu′ = not defined here

Molecular target: T1, human GRF receptor (human, UniProt Q02643 23-423)
T1 sequence (looked up): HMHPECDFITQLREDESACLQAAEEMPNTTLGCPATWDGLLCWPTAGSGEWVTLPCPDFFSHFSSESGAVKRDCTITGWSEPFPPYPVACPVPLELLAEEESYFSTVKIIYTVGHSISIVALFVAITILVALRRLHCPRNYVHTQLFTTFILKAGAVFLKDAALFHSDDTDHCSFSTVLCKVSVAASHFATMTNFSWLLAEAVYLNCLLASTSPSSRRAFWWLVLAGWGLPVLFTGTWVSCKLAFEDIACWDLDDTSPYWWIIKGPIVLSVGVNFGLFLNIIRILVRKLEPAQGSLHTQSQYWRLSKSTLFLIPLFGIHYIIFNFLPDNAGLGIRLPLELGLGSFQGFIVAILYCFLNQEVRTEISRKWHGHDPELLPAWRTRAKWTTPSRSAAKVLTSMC
Experiment: cell-based or functional assay

Binder	EC50 (nM), alkaline phosphatase reporter gene assay [nM]	EMAX (%), alkaline phosphatase reporter gene assay [%]	SNR (signal to noise ratio), alkaline phosphatase reporter gene assay	EC50 fold higher than TH9507, reporter gene assay [fold]
{Hexenoyl(3E)}-YADAIFTDSYRKVLGQLSARKLLQDIMSRQQGESNQERGARARL-NH2 [TH9507 Asp8]	0.08	114	25.3	–
{Hexenoyl(3E)}-YA[Asu′]AIFTNSYRKVLGQLSARKLLQDIMSRQQGESNQERGARARL-NH2 (reading uncertain) [TH9507 cyclic form at Asp^3]	0.2	95.7	21.3	–
{Hexenoyl(3E)}-YA[βAsp]AIFTNSYRKVLGQLSARKLLQDIMSRQQGESNQERGARARL-NH2 [TH9507 beta-Asp3]	4.24	116	–	–
{Hexenoyl(3E)}-YADAIFT[βAsp]SYRKVLGQLSARKLLQDIMSRQQGESNQERGARARL-NH2 [TH9507 beta-Asp8]	30	120	26.9	500
{Hexenoyl(3E)}-YADAIFTNSYRKVLGQLSARKLLQDI[Met(O)]SRQQGESNQERGARARL-NH2 [N-Hex-hGRF[1-44]Met[O]27 amide]	0.16	–	–	–
{Hexenoyl(3E)}-YADAIFTNSYRKVLGQLSARKLLQDIMSRQQGESNQERGARARL-NH2 [[trans-3-hexenoyl]hGHRH (1-44) amide]	0.06	–	–	–
